From IntAct's records for PubMed 20150898

B1: Actin cytoskeleton-regulatory complex protein SLA1 (Saccharomyces cerevisiae), P32790 (parent)
chain: MTVFLGIYRAVYAYEPQTPEELAIQEDDLLYLLQKSDIDDWWTVKKRVIGSDSEEPVGLVPSTYIEEAPVLKKVRAIYDYEQVQNADEELTFHENDVFDVFDDKDADWLLVKSTVSNEFGFIPGNYVEPENGSTSKQEQAPAAAEAPAATPAAAPASAAVLPTNFLPPPQHNDRARMMQSKEDQAPDEDEEGPPPAMPARPTATTETTDATAAAVRSRTRLSYSDNDNDDEEDDYYYNSNSNNVGNHEYNTEYHSWNVTEIEGRKKKKAKLSIGNNKINFIPQKGTPHEWSIDKLVSYDNEKKHMFLEFVDPYRSLELHTGNTTTCEEIMNIIGEYKGASRDPGLREVEMASKSKKRGIVQYDFMAESQDELTIKSGDKVYILDDKKSKDWWMCQLVDSGKSGLVPAQFIEPVRDKKHTESTASGIIKSIKKNFTKSPSRSRSRSRSKSNANASWKDDELQNDVVGSAAGKRSRKSSLSSHKKNSSATKDFPNPKKSRLWVDRSGTFKVDAEFIGCAKGKIHLHKANGVKIAVAADKLSNEDLAYVEKITGFSLEKFKANDGSSSRGTDSRDSERERRRRLKEQEEKERDRRLKERELYELKKARELLDEERSRLQEKELPPIKPPRPTSTTSVPNTTSVPPAESSNNNNSSNKYDWFEFFLNCGVDVSNCQRYTINFDREQLTEDMMPDINNSMLRTLGLREGDIVRVMKHLDKKFGRENIASIPTNATGNMFSQPDGSLNVATSPETSLPQQLLPQTTSPAQTAPSTSAETDDAWTVKPASKSESNLLSKKSEFTGSMQDLLDLQPLEPKKAAASTPEPNLKDLEPVKTGGTTVPAAPVSSAPVSSAPAPLDPFKTGGNNILPLSTGFVMMPMITGGDMLPMQRTGGFVVPQTTFGMQSQVTGGILPVQKTGNGLIPISNTGGAMMPQTTFGAAATVLPLQKTGGGLIPIATTGGAQFPQTSFNVQGQQQLPTGSILPVQKTANGLISANTGVSMPTVQRTGGTMIPQTSFGVSQQLTGGAMMTQPQNTGSAMMPQTSFNAVPQITGGAMMPQTSFNALPQVTGGAMMPLQRTGGALNTFNTGGAMIPQTSFSSQAQNTGGFRPQSQFGLTLQKTGGIAPLNQNQFTGGAMNTLSTGGVLQQQQPQTMNTFNTGGVMQELQMMTTFNTGGAMQQPQMMNTFNTDGIMQQPQMMNTFNTGGAMQQPQQQALQNQPTGFGFGNGPQQSRQANIFNATASNPFGF

Key:
clh_yeast CHC1, P22137 [1] = variants of: B1; details: with clh_yeast CHC1, P22137
clh_yeast CHC1, P22137 [2] = variants of: B1; details: with clh_yeast CHC1, P22137; remark: listed apart in the source

clh_yeast CHC1, P22137, sequence (P22137 whole entry): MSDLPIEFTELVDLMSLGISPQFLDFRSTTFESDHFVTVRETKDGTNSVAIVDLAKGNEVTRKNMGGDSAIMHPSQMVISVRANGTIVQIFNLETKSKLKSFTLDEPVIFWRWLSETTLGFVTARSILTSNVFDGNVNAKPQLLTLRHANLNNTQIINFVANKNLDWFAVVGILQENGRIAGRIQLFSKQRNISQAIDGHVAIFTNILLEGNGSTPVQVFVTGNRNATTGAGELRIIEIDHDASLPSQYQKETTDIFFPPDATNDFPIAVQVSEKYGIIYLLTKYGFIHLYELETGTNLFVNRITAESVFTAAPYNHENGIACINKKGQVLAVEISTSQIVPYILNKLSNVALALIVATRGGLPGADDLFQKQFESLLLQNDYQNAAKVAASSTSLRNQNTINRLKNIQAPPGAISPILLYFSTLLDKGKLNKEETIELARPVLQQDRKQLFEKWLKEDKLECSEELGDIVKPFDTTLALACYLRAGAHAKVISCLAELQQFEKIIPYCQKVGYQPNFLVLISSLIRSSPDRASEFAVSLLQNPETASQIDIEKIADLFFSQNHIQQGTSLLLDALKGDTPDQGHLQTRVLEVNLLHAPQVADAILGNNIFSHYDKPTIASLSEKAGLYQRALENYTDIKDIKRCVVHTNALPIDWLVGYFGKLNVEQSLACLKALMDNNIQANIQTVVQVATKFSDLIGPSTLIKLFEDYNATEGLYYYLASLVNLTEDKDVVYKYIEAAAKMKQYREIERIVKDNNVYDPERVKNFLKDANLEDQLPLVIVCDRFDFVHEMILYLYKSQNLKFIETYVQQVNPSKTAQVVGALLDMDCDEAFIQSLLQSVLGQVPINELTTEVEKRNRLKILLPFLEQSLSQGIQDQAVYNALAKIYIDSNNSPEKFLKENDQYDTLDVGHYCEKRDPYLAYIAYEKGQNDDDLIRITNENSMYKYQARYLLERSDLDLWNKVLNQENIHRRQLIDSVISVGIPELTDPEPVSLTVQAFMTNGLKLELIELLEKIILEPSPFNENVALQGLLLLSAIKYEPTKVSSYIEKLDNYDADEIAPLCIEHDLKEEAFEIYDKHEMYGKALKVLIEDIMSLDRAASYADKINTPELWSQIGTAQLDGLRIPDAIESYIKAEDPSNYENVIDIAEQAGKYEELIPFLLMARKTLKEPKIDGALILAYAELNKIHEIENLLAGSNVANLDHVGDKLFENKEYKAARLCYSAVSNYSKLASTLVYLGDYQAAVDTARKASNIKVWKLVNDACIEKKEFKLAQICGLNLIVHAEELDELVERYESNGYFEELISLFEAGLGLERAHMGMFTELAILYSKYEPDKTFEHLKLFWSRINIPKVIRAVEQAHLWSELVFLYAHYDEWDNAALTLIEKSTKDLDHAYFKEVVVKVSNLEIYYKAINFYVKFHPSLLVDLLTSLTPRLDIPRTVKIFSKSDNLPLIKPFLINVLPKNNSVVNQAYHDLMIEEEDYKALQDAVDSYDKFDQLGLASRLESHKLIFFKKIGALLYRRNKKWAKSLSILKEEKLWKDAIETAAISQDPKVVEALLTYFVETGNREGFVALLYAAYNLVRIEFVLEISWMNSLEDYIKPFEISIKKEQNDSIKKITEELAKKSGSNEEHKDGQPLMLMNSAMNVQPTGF

Variant | effect of a mutation on the interaction (clh_yeast CHC1, P22137 [1]) | effect of a mutation on the interaction (clh_yeast CHC1, P22137 [2])
L803A | decreasing interaction | disrupting interaction
D805A | decreasing interaction | disrupting interaction
L804A | decreasing interaction | disrupting interaction
